Measurements from PMC5580885.

Molecular target: Tim50^IMS (purified, recombinant) (S. cerevisiae) (UniProt Q02776)
Test: cross-linking

Chain of UniProt Q02776 (Q02776 133-476): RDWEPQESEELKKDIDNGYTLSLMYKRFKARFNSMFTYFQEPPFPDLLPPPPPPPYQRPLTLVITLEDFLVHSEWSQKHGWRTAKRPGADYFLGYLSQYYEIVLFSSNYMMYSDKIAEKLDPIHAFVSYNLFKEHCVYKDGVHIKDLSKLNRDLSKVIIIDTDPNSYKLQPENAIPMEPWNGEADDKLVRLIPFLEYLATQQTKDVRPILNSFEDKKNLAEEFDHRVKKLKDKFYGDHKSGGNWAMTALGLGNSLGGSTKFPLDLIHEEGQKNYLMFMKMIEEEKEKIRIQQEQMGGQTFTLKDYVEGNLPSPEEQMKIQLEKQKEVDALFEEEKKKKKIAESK

[35S]Tim23(F114C) (from UniProt P32897 1-222) (natural protein)
fold cross-linking with TOCL over without TOCL: 6 fold
